Test results reported in patent US20240270846A1 (published 2024).

These binders were tested against T1, CD3 epsilon homodimer protein (UniProt P07766 23-126) (assay: SPR Biacore T200, antibody over immobilised CD3e homodimer;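 note: CD3 epsilon homodimer amine-coupled on a CM4 chip, run at 25 °C in HBS-EP+, Z = bound amount of each single-residue H chain variant over that of the parent antibody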).
T1 construct: also called CD3 (CD3 epsilon)
T1 sequence (P07766 23-126): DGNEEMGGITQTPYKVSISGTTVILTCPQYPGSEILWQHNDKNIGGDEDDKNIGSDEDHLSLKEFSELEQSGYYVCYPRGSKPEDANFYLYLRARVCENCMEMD

Binder	ratio of amounts bound (Z=Y/X vs CE115HA000)
CE115HA000 K64A one-arm antibody (antibody, human IgG1, kappa, L234A L235A, N297A, name in Kabat numbering, one-arm antibody) heavy: QVQLVESGGGVVQPGRSLRLSCAASGFTFSNAWMHWVRQAPGKGLEWVAQIKAKSNNYATYYAESVAGRFTISRDDSKNSLYLQMNSLKTEDTAVYYCRYVHYGAYYGVDAWGQGTTVTVSSASTKGPSVFPLAPSSKSTSGGTAALGCLVKDYFPEPVTVSWNSGALTSGVHTFPAVLQSSGLYSLSSVVTVPSSSLGTQTYICNVNHKPSNTKVDKKVEPKSCDKTHTCPPCPAPEAAGGPSVFLFPPKPKDTLMISRTPEVTCVVVDVSHEDPEVKFNWYVDGVEVHNAKTKPREEQYASTYRVVSVLTVLHQDWLNGKEYKCKVSNKALPAPIEKTISKAKGQPREPQVYTLPPSRCELTKNQVSLSCAVKGFYPSDIAVEWESNGQPENNYKTTPPVLDSDGSFFLVSKLTVDKSRWQQGNVFSCSVMHEALHNHYTQKSLSLSPDYKDDDDK EPKSSDKTHTCPPCPAPELLGGPSVFLFPPKPKDTLMISRTPEVTCVVVDVSHEDPEVKFNWYVDGVEVHNAKTKPREEQYNSTYRVVSVLTVLHQDWLNGKEYKCKVSNKALPAPIEKTISKAKGQPREPQVCTLPPSRDELTKNQVSLWCLVKGFYPSDIAVEWESNGQPENNYKTTPPVLDSDGSFFLYSKLTVDKSRWQQGNVFSCSVMHEALHNRYTQKSLSLSP light: DIVMTQSPLSLPVTPGEPASISCRSSQSLVHSNRNTYLHWYQQKPGQAPRLLIYKVSNRFSGVPDRFSGSGSGTDFTLKISRVEAEDVGVYYCGQGTQVPYTFGQGTKLEIKRTVAAPSVFIFPPSDEQLKSGTASVVCLLNNFYPREAKVQWKVDNALQSGNSQESVTEQDSKDSTYSLSSTLTLSKADYEKHKVYACEVTHQGLSSPVTKSFNRGEC	0.82
CE115HA000 K64D one-arm antibody (antibody, human IgG1, kappa, L234A L235A, N297A, name in Kabat numbering, one-arm antibody) heavy: QVQLVESGGGVVQPGRSLRLSCAASGFTFSNAWMHWVRQAPGKGLEWVAQIKAKSNNYATYYAESVDGRFTISRDDSKNSLYLQMNSLKTEDTAVYYCRYVHYGAYYGVDAWGQGTTVTVSSASTKGPSVFPLAPSSKSTSGGTAALGCLVKDYFPEPVTVSWNSGALTSGVHTFPAVLQSSGLYSLSSVVTVPSSSLGTQTYICNVNHKPSNTKVDKKVEPKSCDKTHTCPPCPAPEAAGGPSVFLFPPKPKDTLMISRTPEVTCVVVDVSHEDPEVKFNWYVDGVEVHNAKTKPREEQYASTYRVVSVLTVLHQDWLNGKEYKCKVSNKALPAPIEKTISKAKGQPREPQVYTLPPSRCELTKNQVSLSCAVKGFYPSDIAVEWESNGQPENNYKTTPPVLDSDGSFFLVSKLTVDKSRWQQGNVFSCSVMHEALHNHYTQKSLSLSPDYKDDDDK EPKSSDKTHTCPPCPAPELLGGPSVFLFPPKPKDTLMISRTPEVTCVVVDVSHEDPEVKFNWYVDGVEVHNAKTKPREEQYNSTYRVVSVLTVLHQDWLNGKEYKCKVSNKALPAPIEKTISKAKGQPREPQVCTLPPSRDELTKNQVSLWCLVKGFYPSDIAVEWESNGQPENNYKTTPPVLDSDGSFFLYSKLTVDKSRWQQGNVFSCSVMHEALHNRYTQKSLSLSP light: DIVMTQSPLSLPVTPGEPASISCRSSQSLVHSNRNTYLHWYQQKPGQAPRLLIYKVSNRFSGVPDRFSGSGSGTDFTLKISRVEAEDVGVYYCGQGTQVPYTFGQGTKLEIKRTVAAPSVFIFPPSDEQLKSGTASVVCLLNNFYPREAKVQWKVDNALQSGNSQESVTEQDSKDSTYSLSSTLTLSKADYEKHKVYACEVTHQGLSSPVTKSFNRGEC	0.72
CE115HA000 K64E one-arm antibody (antibody, human IgG1, kappa, L234A L235A, N297A, name in Kabat numbering, one-arm antibody) heavy: QVQLVESGGGVVQPGRSLRLSCAASGFTFSNAWMHWVRQAPGKGLEWVAQIKAKSNNYATYYAESVEGRFTISRDDSKNSLYLQMNSLKTEDTAVYYCRYVHYGAYYGVDAWGQGTTVTVSSASTKGPSVFPLAPSSKSTSGGTAALGCLVKDYFPEPVTVSWNSGALTSGVHTFPAVLQSSGLYSLSSVVTVPSSSLGTQTYICNVNHKPSNTKVDKKVEPKSCDKTHTCPPCPAPEAAGGPSVFLFPPKPKDTLMISRTPEVTCVVVDVSHEDPEVKFNWYVDGVEVHNAKTKPREEQYASTYRVVSVLTVLHQDWLNGKEYKCKVSNKALPAPIEKTISKAKGQPREPQVYTLPPSRCELTKNQVSLSCAVKGFYPSDIAVEWESNGQPENNYKTTPPVLDSDGSFFLVSKLTVDKSRWQQGNVFSCSVMHEALHNHYTQKSLSLSPDYKDDDDK EPKSSDKTHTCPPCPAPELLGGPSVFLFPPKPKDTLMISRTPEVTCVVVDVSHEDPEVKFNWYVDGVEVHNAKTKPREEQYNSTYRVVSVLTVLHQDWLNGKEYKCKVSNKALPAPIEKTISKAKGQPREPQVCTLPPSRDELTKNQVSLWCLVKGFYPSDIAVEWESNGQPENNYKTTPPVLDSDGSFFLYSKLTVDKSRWQQGNVFSCSVMHEALHNRYTQKSLSLSP light: DIVMTQSPLSLPVTPGEPASISCRSSQSLVHSNRNTYLHWYQQKPGQAPRLLIYKVSNRFSGVPDRFSGSGSGTDFTLKISRVEAEDVGVYYCGQGTQVPYTFGQGTKLEIKRTVAAPSVFIFPPSDEQLKSGTASVVCLLNNFYPREAKVQWKVDNALQSGNSQESVTEQDSKDSTYSLSSTLTLSKADYEKHKVYACEVTHQGLSSPVTKSFNRGEC	0.74

Other lines, results leading:

ratio of amounts bound (Z=Y/X vs CE115HA000)	Binder
0.37	CE115HA000 N31D one-arm antibody (antibody, human IgG1, kappa, L234A L235A, N297A, name in Kabat numbering, one-arm antibody) heavy: QVQLVESGGGVVQPGRSLRLSCAASGFTFSDAWMHWVRQAPGKGLEWVAQIKAKSNNYATYYAESVKGRFTISRDDSKNSLYLQMNSLKTEDTAVYYCRYVHYGAYYGVDAWGQGTTVTVSSASTKGPSVFPLAPSSKSTSGGTAALGCLVKDYFPEPVTVSWNSGALTSGVHTFPAVLQSSGLYSLSSVVTVPSSSLGTQTYICNVNHKPSNTKVDKKVEPKSCDKTHTCPPCPAPEAAGGPSVFLFPPKPKDTLMISRTPEVTCVVVDVSHEDPEVKFNWYVDGVEVHNAKTKPREEQYASTYRVVSVLTVLHQDWLNGKEYKCKVSNKALPAPIEKTISKAKGQPREPQVYTLPPSRCELTKNQVSLSCAVKGFYPSDIAVEWESNGQPENNYKTTPPVLDSDGSFFLVSKLTVDKSRWQQGNVFSCSVMHEALHNHYTQKSLSLSPDYKDDDDK EPKSSDKTHTCPPCPAPELLGGPSVFLFPPKPKDTLMISRTPEVTCVVVDVSHEDPEVKFNWYVDGVEVHNAKTKPREEQYNSTYRVVSVLTVLHQDWLNGKEYKCKVSNKALPAPIEKTISKAKGQPREPQVCTLPPSRDELTKNQVSLWCLVKGFYPSDIAVEWESNGQPENNYKTTPPVLDSDGSFFLYSKLTVDKSRWQQGNVFSCSVMHEALHNRYTQKSLSLSP light: DIVMTQSPLSLPVTPGEPASISCRSSQSLVHSNRNTYLHWYQQKPGQAPRLLIYKVSNRFSGVPDRFSGSGSGTDFTLKISRVEAEDVGVYYCGQGTQVPYTFGQGTKLEIKRTVAAPSVFIFPPSDEQLKSGTASVVCLLNNFYPREAKVQWKVDNALQSGNSQESVTEQDSKDSTYSLSSTLTLSKADYEKHKVYACEVTHQGLSSPVTKSFNRGEC
0.62	CE115HA000 N31F one-arm antibody (antibody, human IgG1, kappa, L234A L235A, N297A, name in Kabat numbering, one-arm antibody) heavy: QVQLVESGGGVVQPGRSLRLSCAASGFTFSFAWMHWVRQAPGKGLEWVAQIKAKSNNYATYYAESVKGRFTISRDDSKNSLYLQMNSLKTEDTAVYYCRYVHYGAYYGVDAWGQGTTVTVSSASTKGPSVFPLAPSSKSTSGGTAALGCLVKDYFPEPVTVSWNSGALTSGVHTFPAVLQSSGLYSLSSVVTVPSSSLGTQTYICNVNHKPSNTKVDKKVEPKSCDKTHTCPPCPAPEAAGGPSVFLFPPKPKDTLMISRTPEVTCVVVDVSHEDPEVKFNWYVDGVEVHNAKTKPREEQYASTYRVVSVLTVLHQDWLNGKEYKCKVSNKALPAPIEKTISKAKGQPREPQVYTLPPSRCELTKNQVSLSCAVKGFYPSDIAVEWESNGQPENNYKTTPPVLDSDGSFFLVSKLTVDKSRWQQGNVFSCSVMHEALHNHYTQKSLSLSPDYKDDDDK EPKSSDKTHTCPPCPAPELLGGPSVFLFPPKPKDTLMISRTPEVTCVVVDVSHEDPEVKFNWYVDGVEVHNAKTKPREEQYNSTYRVVSVLTVLHQDWLNGKEYKCKVSNKALPAPIEKTISKAKGQPREPQVCTLPPSRDELTKNQVSLWCLVKGFYPSDIAVEWESNGQPENNYKTTPPVLDSDGSFFLYSKLTVDKSRWQQGNVFSCSVMHEALHNRYTQKSLSLSP light: DIVMTQSPLSLPVTPGEPASISCRSSQSLVHSNRNTYLHWYQQKPGQAPRLLIYKVSNRFSGVPDRFSGSGSGTDFTLKISRVEAEDVGVYYCGQGTQVPYTFGQGTKLEIKRTVAAPSVFIFPPSDEQLKSGTASVVCLLNNFYPREAKVQWKVDNALQSGNSQESVTEQDSKDSTYSLSSTLTLSKADYEKHKVYACEVTHQGLSSPVTKSFNRGEC
0.5	CE115HA000 N31A one-arm antibody (antibody, human IgG1, kappa, L234A L235A, N297A, name in Kabat numbering, one-arm antibody) heavy: QVQLVESGGGVVQPGRSLRLSCAASGFTFSAAWMHWVRQAPGKGLEWVAQIKAKSNNYATYYAESVKGRFTISRDDSKNSLYLQMNSLKTEDTAVYYCRYVHYGAYYGVDAWGQGTTVTVSSASTKGPSVFPLAPSSKSTSGGTAALGCLVKDYFPEPVTVSWNSGALTSGVHTFPAVLQSSGLYSLSSVVTVPSSSLGTQTYICNVNHKPSNTKVDKKVEPKSCDKTHTCPPCPAPEAAGGPSVFLFPPKPKDTLMISRTPEVTCVVVDVSHEDPEVKFNWYVDGVEVHNAKTKPREEQYASTYRVVSVLTVLHQDWLNGKEYKCKVSNKALPAPIEKTISKAKGQPREPQVYTLPPSRCELTKNQVSLSCAVKGFYPSDIAVEWESNGQPENNYKTTPPVLDSDGSFFLVSKLTVDKSRWQQGNVFSCSVMHEALHNHYTQKSLSLSPDYKDDDDK EPKSSDKTHTCPPCPAPELLGGPSVFLFPPKPKDTLMISRTPEVTCVVVDVSHEDPEVKFNWYVDGVEVHNAKTKPREEQYNSTYRVVSVLTVLHQDWLNGKEYKCKVSNKALPAPIEKTISKAKGQPREPQVCTLPPSRDELTKNQVSLWCLVKGFYPSDIAVEWESNGQPENNYKTTPPVLDSDGSFFLYSKLTVDKSRWQQGNVFSCSVMHEALHNRYTQKSLSLSP light: DIVMTQSPLSLPVTPGEPASISCRSSQSLVHSNRNTYLHWYQQKPGQAPRLLIYKVSNRFSGVPDRFSGSGSGTDFTLKISRVEAEDVGVYYCGQGTQVPYTFGQGTKLEIKRTVAAPSVFIFPPSDEQLKSGTASVVCLLNNFYPREAKVQWKVDNALQSGNSQESVTEQDSKDSTYSLSSTLTLSKADYEKHKVYACEVTHQGLSSPVTKSFNRGEC
